Laboratory results taken from US20180369425A1, “LINKED AND OTHER pH-TRIGGERED COMPOUNDS” (priority 2017, published 2018).
Residues, ends and D or L forms follow the SMILES beside them. *: point of attachment. X1 = CC1(C)C(/C=C/C=C/C=C/C=C2/N(CCCCCC(=O)NCCN3C(=O)CC(*)C3=O)c3ccc4ccccc4c3C2(C)C)=[N+](CCCCS(=O)(=O)[O-])c2ccc3ccccc3c21

Test system: 4T1 tumor
Experiment: Ex vivo NIRF imaging of organs (biodistribution and kinetics of ICG-pHLIP)
Assay type: in vivo, mouse
Settings: for Fluorescence intensity, Bone / Fluorescence intensity, Brain / Fluorescence intensity, Heart / Fluorescence intensity, Kidneys / Fluorescence intensity, L. Intest. / Fluorescence intensity, Liver / Fluorescence intensity, Lungs / Fluorescence intensity, Muscle / Fluorescence intensity, Pancreas / Fluorescence intensity, S. Intest. / Fluorescence intensity, Skin / Fluorescence intensity, Spleen / Fluorescence intensity, Stomach / Fluorescence intensity, Tumor: mean ± St. D., 5 animals
Method: BALB/cAcNHsd mice ranging in age from 5 to 6 weeks obtained from Envigo RMS Inc were used in the study. Mouse mammary 4T1 cancer cells were subcutaneously implanted in the right flank (8×10^5 cells/0.1 mL/flank) of adult female mice. Triple negative 4T1 tumor model closely mimics stage IV of human breast cancer. When tumors reached 5-6 mm in diameter, single tail vein injections of 2.5 nmol (or 0.5 mg/kg) of ICG-pHLIP in sterile PBS with 5% DMSO or 5% Ethanol (volume of the injection was 100 μl) were performed. The whole body and ex vivo imaging was performed using a Stryker 1588 AIM clinical imaging system with L10 AIM Light Source, 1588 AIM Camera using a 10 mm or 5 mm scope.
Animals were euthanized at time points: 5 min, 1 hr, 2 hrs, 4 hrs, 6 hrs, 16 hrs, 26 hrs and 48 hrs. […] 100 μl of blood was collected immediately after euthanasia and mixed with 12.5 μl of citrate-dextrose anticoagulant solution (kept at 4° C.), and necropsy was performed. Tumor, muscles, skin, heart, lungs, liver, spleen, kidneys, brain, pancreas, bone, stomach, small and large intestines were collected, imaged immediately after collection, weighed, and fast frozen in liquid nitrogen.
The ex vivo imaging of organs was performed using a Stryker 1588 AIM clinical imaging system with L10 AIM Light Source, 1588 AIM Camera using a 10 mm scope. The lens was spaced 4.3 cm away from the surface of the organs within an enclosed (light protected) area. The NIRF imaging of each organ was performed at three different laser intensities set on a hexadecimal scale as 0B-22 (low), 12-5C (medium), and 20-3A (high). The digital images of organs were processed using program written in Python to determine the average level of intensity recorded in the green channel. Since organs were imaged in the dark on black mats, the background signal was determined by introducing an intensity threshold. All the pixels with intensity from the green channel above the set threshold were counted and the average green intensity per pixel was calculated. Thus, the mean intensity per organ (Table 17a) and averaged over organs from 5 animals (Table 17b) was calculated.

CC(C)C[C@H](NC(=O)[C@H](Cc1ccc(O)cc1)NC(=O)[C@H](C)NC(=O)[C@H](CCCNC(=N)N)NC(=O)[C@H](Cc1c[nH]c2ccccc12)NC(=O)[C@@H]1CCCN1C(=O)[C@H](CC(N)=O)NC(=O)[C@H](CCC(N)=O)NC(=O)[C@H](CC(=O)O)NC(=O)[C@H](CC(=O)O)NC(=O)[C@H](CSC1CC(=O)N(CCNC(=O)CCCCCN2/C(=C/C=C/C=C/C=C/C3=[N+](CCCCS(=O)(=O)[O-])c4ccc5ccccc5c4C3(C)C)C(C)(C)c3c2ccc2ccccc32)C1=O)NC(=O)[C@H](C)N)C(=O)N[C@@H](CC(=O)O)C(=O)N[C@@H](CC(C)C)C(=O)N[C@@H](CC(C)C)C(=O)N[C@@H](Cc1ccccc1)C(=O)N1CCC[C@H]1C(=O)N[C@H](C(=O)N[C@@H](CC(=O)O)C(=O)N[C@H](C(=O)N[C@@H](CC(C)C)C(=O)N[C@@H](CC(C)C)C(=O)N[C@@H](CC(C)C)C(=O)N[C@@H](CC(=O)O)C(=O)N[C@@H](CC(C)C)C(=O)N[C@@H](CC(C)C)C(=O)N[C@@H](Cc1c[nH]c2ccccc12)C(=O)N[C@@H](C)C(=O)O)[C@@H](C)O)[C@@H](C)O (stereo partly shown) [ICG-pHLIP] (H-AC(X1)DDQNPWRAYLDLLFPTDTLLLDLLWA-OH)
time the fluorescence stays within the tumor (4T1 tumor): up to 26 hours | Fluorescence intensity, Bone (5 min p.i.): 79.4 ± 8.1 a.u. | Fluorescence intensity, Brain (5 min p.i.): 167.0 ± 22.5 a.u. | Fluorescence intensity, Heart (5 min p.i.): 198.1 ± 15.9 a.u. | Fluorescence intensity, Kidneys (5 min p.i.): 171.7 ± 18.4 a.u. | Fluorescence intensity, L. Intest. (5 min p.i.): 37.1 ± 7.9 a.u. | Fluorescence intensity, Liver (5 min p.i.): 419.8 ± 37.9 a.u. | Fluorescence intensity, Lungs (5 min p.i.): 216.6 ± 2.7 a.u. | Fluorescence intensity, Muscle (5 min p.i.): 22.2 ± 20.3 a.u. | Fluorescence intensity, Pancreas (5 min p.i.): 153.2 ± 34.7 a.u. | Fluorescence intensity, S. Intest. (5 min p.i.): 42.4 ± 12.2 a.u. | Fluorescence intensity, Skin (5 min p.i.): 27.9 ± 16.4 a.u. | Fluorescence intensity, Spleen (5 min p.i.): 154.6 ± 9.0 a.u. | Fluorescence intensity, Stomach (5 min p.i.): 91.7 ± 13.4 a.u. | Fluorescence intensity, Tumor (5 min p.i.): 36.2 ± 6.0 a.u. | Fluorescence intensity, Bone (1 hour p.i.): 74.0 ± 13.1 a.u. | Fluorescence intensity, Brain (1 hour p.i.): 137.7 ± 8.9 a.u. | Fluorescence intensity, Heart (1 hour p.i.): 179.6 ± 16.4 a.u. | Fluorescence intensity, Kidneys (1 hour p.i.): 193.7 ± 10.6 a.u. | Fluorescence intensity, L. Intest. (1 hour p.i.): 28.4 ± 17.9 a.u. | Fluorescence intensity, Liver (1 hour p.i.): 533.0 ± 16.7 a.u. | Fluorescence intensity, Lungs (1 hour p.i.): 194.7 ± 6.2 a.u. | Fluorescence intensity, Muscle (1 hour p.i.): 8.2 ± 18.2 a.u. | Fluorescence intensity, Pancreas (1 hour p.i.): 132.7 ± 24.5 a.u. | Fluorescence intensity, S. Intest. (1 hour p.i.): 71.9 ± 16.9 a.u. | Fluorescence intensity, Skin (1 hour p.i.): 39.1 ± 9.0 a.u. | Fluorescence intensity, Spleen (1 hour p.i.): 157.8 ± 4.4 a.u. | Fluorescence intensity, Stomach (1 hour p.i.): 99.1 ± 23.0 a.u. | Fluorescence intensity, Tumor (1 hour p.i.): 100.5 ± 38.5 a.u. | Fluorescence intensity, Bone (2 hours p.i.): 57.5 ± 23.4 a.u. | Fluorescence intensity, Brain (2 hours p.i.): 82.2 ± 17.4 a.u. | Fluorescence intensity, Heart (2 hours p.i.): 167.6 ± 12.2 a.u. | Fluorescence intensity, Kidneys (2 hours p.i.): 156.0 ± 14.1 a.u. | Fluorescence intensity, L. Intest. (2 hours p.i.): 6.4 ± 14.4 a.u. | Fluorescence intensity, Liver (2 hours p.i.): 542.6 ± 26.8 a.u. | Fluorescence intensity, Lungs (2 hours p.i.): 177.0 ± 10.4 a.u. | Fluorescence intensity, Muscle (2 hours p.i.): 0.0 ± 0.0 a.u. | Fluorescence intensity, Pancreas (2 hours p.i.): 89.0 ± 32.0 a.u. | Fluorescence intensity, S. Intest. (2 hours p.i.): 47.1 ± 13.9 a.u. | Fluorescence intensity, Skin (2 hours p.i.): 32.0 ± 18.1 a.u. | Fluorescence intensity, Spleen (2 hours p.i.): 136.9 ± 7.7 a.u. | Fluorescence intensity, Stomach (2 hours p.i.): 80.7 ± 18.6 a.u. | Fluorescence intensity, Tumor (2 hours p.i.): 133.9 ± 14.2 a.u. | Fluorescence intensity, Bone (4 hours p.i.): 63.1 ± 21.0 a.u. | Fluorescence intensity, Brain (4 hours p.i.): 73.8 ± 8.3 a.u. | Fluorescence intensity, Heart (4 hours p.i.): 185.6 ± 7.2 a.u. | Fluorescence intensity, Kidneys (4 hours p.i.): 185.5 ± 6.2 a.u. | Fluorescence intensity, L. Intest. (4 hours p.i.): 7.9 ± 17.6 a.u. | Fluorescence intensity, Liver (4 hours p.i.): 540.1 ± 18.8 a.u. | Fluorescence intensity, Lungs (4 hours p.i.): 187.0 ± 17.2 a.u. | Fluorescence intensity, Muscle (4 hours p.i.): 26.2 ± 24.6 a.u. | Fluorescence intensity, Pancreas (4 hours p.i.): 92.0 ± 2.5 a.u. | Fluorescence intensity, S. Intest. (4 hours p.i.): 64.9 ± 16.3 a.u. | Fluorescence intensity, Skin (4 hours p.i.): 48.2 ± 11.6 a.u. | Fluorescence intensity, Spleen (4 hours p.i.): 150.9 ± 11.4 a.u. | Fluorescence intensity, Stomach (4 hours p.i.): 108.4 ± 6.5 a.u. | Fluorescence intensity, Tumor (4 hours p.i.): 211.2 ± 15.7 a.u. | Fluorescence intensity, Bone (6 hours p.i.): 66.7 ± 16.0 a.u. | Fluorescence intensity, Brain (6 hours p.i.): 55.3 ± 11.0 a.u. | Fluorescence intensity, Heart (6 hours p.i.): 163.0 ± 8.2 a.u. | Fluorescence intensity, Kidneys (6 hours p.i.): 174.0 ± 5.0 a.u. | Fluorescence intensity, L. Intest. (6 hours p.i.): 27.1 ± 15.6 a.u. | Fluorescence intensity, Liver (6 hours p.i.): 527.1 ± 44.4 a.u. | Fluorescence intensity, Lungs (6 hours p.i.): 156.8 ± 15.9 a.u. | Fluorescence intensity, Muscle (6 hours p.i.): 0.0 ± 0.0 a.u. | Fluorescence intensity, Pancreas (6 hours p.i.): 82.2 ± 15.3 a.u. | Fluorescence intensity, S. Intest. (6 hours p.i.): 54.2 ± 11.6 a.u. | Fluorescence intensity, Skin (6 hours p.i.): 47.1 ± 13.6 a.u. | Fluorescence intensity, Spleen (6 hours p.i.): 148.1 ± 13.4 a.u. | Fluorescence intensity, Stomach (6 hours p.i.): 126.8 ± 9.9 a.u. | Fluorescence intensity, Tumor (6 hours p.i.): 198.6 ± 33.0 a.u. | Fluorescence intensity, Bone (16 hours p.i.): 66.2 ± 8.5 a.u. | Fluorescence intensity, Brain (16 hours p.i.): 35.3 ± 1.8 a.u. | Fluorescence intensity, Heart (16 hours p.i.): 129.2 ± 15.7 a.u. | Fluorescence intensity, Kidneys (16 hours p.i.): 170.6 ± 12.8 a.u. | Fluorescence intensity, L. Intest. (16 hours p.i.): 40.5 ± 4.0 a.u. | Fluorescence intensity, Liver (16 hours p.i.): 400.5 ± 34.1 a.u. | Fluorescence intensity, Lungs (16 hours p.i.): 141.3 ± 21.5 a.u. | Fluorescence intensity, Muscle (16 hours p.i.): 0.0 ± 0.0 a.u. | Fluorescence intensity, Pancreas (16 hours p.i.): 70.3 ± 30.0 a.u. | Fluorescence intensity, S. Intest. (16 hours p.i.): 83.8 ± 13.6 a.u. | Fluorescence intensity, Skin (16 hours p.i.): 76.7 ± 20.4 a.u. | Fluorescence intensity, Spleen (16 hours p.i.): 116.3 ± 25.0 a.u. | Fluorescence intensity, Stomach (16 hours p.i.): 117.3 ± 33.1 a.u. | Fluorescence intensity, Tumor (16 hours p.i.): 222.8 ± 11.0 a.u. | Fluorescence intensity, Bone (26 hours p.i.): 42.8 ± 6.4 a.u. | Fluorescence intensity, Brain (26 hours p.i.): 0.0 ± 0.0 a.u. | Fluorescence intensity, Heart (26 hours p.i.): 61.3 ± 6.6 a.u. | Fluorescence intensity, Kidneys (26 hours p.i.): 111.8 ± 7.9 a.u. | Fluorescence intensity, L. Intest. (26 hours p.i.): 0.0 ± 0.0 a.u. | Fluorescence intensity, Liver (26 hours p.i.): 213.1 ± 9.7 a.u. | Fluorescence intensity, Lungs (26 hours p.i.): 64.2 ± 13.9 a.u. | Fluorescence intensity, Muscle (26 hours p.i.): 8.6 ± 19.2 a.u. | Fluorescence intensity, Pancreas (26 hours p.i.): 30.9 ± 17.9 a.u. | Fluorescence intensity, S. Intest. (26 hours p.i.): 37.8 ± 4.7 a.u. | Fluorescence intensity, Skin (26 hours p.i.): 25.1 ± 24.8 a.u. | Fluorescence intensity, Spleen (26 hours p.i.): 48.0 ± 7.7 a.u. | Fluorescence intensity, Stomach (26 hours p.i.): 59.1 ± 13.4 a.u. | Fluorescence intensity, Tumor (26 hours p.i.): 182.6 ± 14.7 a.u. | time of maximum signal in liver (p.i.): 1 h
